Assay in all cases: ITC
Background: Isothermal titration calorimetry measures the heat released or taken up as one component is titrated into another.

Experiment [1] deals with Alanine mutations of MRG15 L168 and W172 (human).
Experiment [2] has as its target human MRG15 MRG domain (residues 155-323) (human, UniProt Q9UBU8-2 155-323).
The target in experiment [3] is human MRG15 MRG L287A (human, UniProt Q9UBU8-2 155-323, alanine mutation of L287).
Experiment [4] has as its target human MRG15 MRG L168A (human, UniProt Q9UBU8-2 155-323, alanine mutation of L168).
The target of experiment [5] is human MRG15 MRG W172A (human, UniProt Q9UBU8-2 155-323, alanine mutation of W172).
human MRG15 MRG W172A, sequence (Q9UBU8 194-362 W211A): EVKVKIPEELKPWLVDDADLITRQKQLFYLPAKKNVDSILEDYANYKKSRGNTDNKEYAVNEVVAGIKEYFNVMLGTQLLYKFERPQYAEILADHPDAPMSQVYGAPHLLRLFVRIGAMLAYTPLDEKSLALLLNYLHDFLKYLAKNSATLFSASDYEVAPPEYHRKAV

Positions count from the first letter of the chain named. Names may count otherwise. “And” between values parts separate entries of the source, which are not always exact repeats. Equal entries are not always repeated.

human MRG15 MRG domain (residues 155-323), sequence (Q9UBU8 194-362): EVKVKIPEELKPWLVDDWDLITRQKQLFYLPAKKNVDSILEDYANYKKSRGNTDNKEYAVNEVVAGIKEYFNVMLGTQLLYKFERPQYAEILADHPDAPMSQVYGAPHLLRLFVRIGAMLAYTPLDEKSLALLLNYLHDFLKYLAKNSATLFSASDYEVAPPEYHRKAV
human MRG15 MRG L287A, sequence (Q9UBU8 194-362 L326A): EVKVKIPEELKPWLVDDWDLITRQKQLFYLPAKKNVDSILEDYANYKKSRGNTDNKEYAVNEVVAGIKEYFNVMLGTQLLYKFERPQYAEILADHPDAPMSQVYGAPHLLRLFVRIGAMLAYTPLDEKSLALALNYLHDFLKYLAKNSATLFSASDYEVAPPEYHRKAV
human MRG15 MRG L168A, sequence (Q9UBU8 194-362 L207A): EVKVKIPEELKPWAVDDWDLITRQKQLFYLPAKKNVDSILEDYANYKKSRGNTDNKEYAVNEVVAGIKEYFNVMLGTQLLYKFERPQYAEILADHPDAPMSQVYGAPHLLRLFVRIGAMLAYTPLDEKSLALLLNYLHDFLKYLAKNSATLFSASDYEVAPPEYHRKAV

Take “human MRGBP MRG-binding domain (residues 69-119) (from UniProt Q9NV56 69-119) (domain or fragment)”: in experiment [1], the fold reduction in binding affinity was 7 fold and 8 fold.

B1: human MRGBP MRG-binding domain (residues 69-119) (domain or fragment, UniProt Q9NV56 69-119, looked up)
chain: GRQVPSKVIWDHLSTMYDMQALHESEILPFPNPERNFVLPEEIIQEVREGK
The Kd is a measure of binding affinity in units of concentration. Molecule B1 had a dissociation constant (Kd) in experiment [2] of roughly 60 nM. Also, the “fold effect on binding” value in experiment [3] was greater than 2 fold. Also, the binding result in experiment [4] and in experiment [5] was “binds” throughout.

B2: human MRGBP MBD M84A (domain or fragment, UniProt Q9NV56 69-119, looked up)
chain: B1 chain with M16A
In the case of B2, in experiment [2], the “fold decrease in binding affinity relative to wild-type” value was roughly 3 fold.

B3: human MRGBP MBD I112A (domain or fragment, UniProt Q9NV56 69-119, looked up)
chain: B1 chain with I44A
B3: the “fold decrease in binding affinity relative to wild-type” value in experiment [2] is roughly 13 fold.

B4: human PALB2 MBD (residues 579-629) (domain or fragment, UniProt Q86YC2 579-629, looked up)
chain: AYLSLDDDAFTAPFHRDGMLSLKQLLSFLSITDFQLPDEDFGPLKLEKVKS
As for B4, in experiment [2], the dissociation constant Kd was roughly 20 nM.

(Values after PMC4456287 (Structure (London, England : 1993), 2015).)
